Results reported in patent publication US20100081620A1.

Experiments:
[1] = biological target: MMP 13; assay: enzyme inhibition, fluorescent peptide substrate
[2] = biological target: MMP 14; assay: enzyme inhibition, fluorescent peptide substrate
[3] = biological target: MMP 1; assay: enzyme inhibition, fluorescent peptide substrate
[4] = biological target: MMP 2; assay: enzyme inhibition, fluorescent peptide substrate
[5] = biological target: MMP 3; assay: enzyme inhibition, fluorescent peptide substrate
MMP 3, sequence (P08254 100-477): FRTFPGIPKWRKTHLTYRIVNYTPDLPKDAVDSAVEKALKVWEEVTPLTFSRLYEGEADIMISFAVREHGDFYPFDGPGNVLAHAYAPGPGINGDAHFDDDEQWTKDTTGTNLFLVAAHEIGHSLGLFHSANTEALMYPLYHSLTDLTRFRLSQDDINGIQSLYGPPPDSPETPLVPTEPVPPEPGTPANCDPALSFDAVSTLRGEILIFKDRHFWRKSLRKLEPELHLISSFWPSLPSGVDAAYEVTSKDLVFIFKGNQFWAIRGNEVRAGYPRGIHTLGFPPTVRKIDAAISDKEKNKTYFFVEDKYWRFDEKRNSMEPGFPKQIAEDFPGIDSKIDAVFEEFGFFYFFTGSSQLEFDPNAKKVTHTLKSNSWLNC

[6] = biological target: MMP 9; assay: enzyme inhibition, fluorescent peptide substrate
MMP 9, sequence (P14780 107-707): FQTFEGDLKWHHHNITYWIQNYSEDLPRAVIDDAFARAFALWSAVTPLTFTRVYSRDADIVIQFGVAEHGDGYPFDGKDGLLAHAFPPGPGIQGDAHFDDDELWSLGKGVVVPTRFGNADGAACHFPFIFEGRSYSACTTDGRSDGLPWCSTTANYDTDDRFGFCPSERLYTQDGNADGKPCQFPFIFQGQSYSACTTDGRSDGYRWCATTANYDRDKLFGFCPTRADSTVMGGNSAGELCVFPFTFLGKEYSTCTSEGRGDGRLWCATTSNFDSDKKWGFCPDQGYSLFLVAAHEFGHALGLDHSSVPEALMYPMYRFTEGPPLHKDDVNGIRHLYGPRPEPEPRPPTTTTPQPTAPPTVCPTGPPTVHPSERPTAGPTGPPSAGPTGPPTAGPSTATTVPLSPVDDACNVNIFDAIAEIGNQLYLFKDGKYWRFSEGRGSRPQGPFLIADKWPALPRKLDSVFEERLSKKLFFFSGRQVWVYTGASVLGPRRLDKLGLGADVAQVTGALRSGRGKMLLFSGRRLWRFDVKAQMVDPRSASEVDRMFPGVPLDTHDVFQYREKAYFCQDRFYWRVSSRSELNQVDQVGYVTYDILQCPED

[7] = biological target: T1, ADAM 8 catalytic domain (mouse) (mouse) (UniProt Q05910); assay: cell-based or functional assay
T1 sequence (looked up): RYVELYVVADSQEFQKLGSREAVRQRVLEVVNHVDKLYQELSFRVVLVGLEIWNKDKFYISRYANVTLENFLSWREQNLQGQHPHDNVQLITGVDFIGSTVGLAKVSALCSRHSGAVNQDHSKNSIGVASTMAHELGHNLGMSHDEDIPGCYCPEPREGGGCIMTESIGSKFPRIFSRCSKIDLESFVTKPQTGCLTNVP

[8] = biological target: Human ADAM10 protease containing the catalytic/disintegrin domains (human) (UniProt O14672); assay: cell-based or functional assay
Human ADAM10 protease containing the catalytic/disintegrin domains (human), sequence (O14672 214-672 limits assumed): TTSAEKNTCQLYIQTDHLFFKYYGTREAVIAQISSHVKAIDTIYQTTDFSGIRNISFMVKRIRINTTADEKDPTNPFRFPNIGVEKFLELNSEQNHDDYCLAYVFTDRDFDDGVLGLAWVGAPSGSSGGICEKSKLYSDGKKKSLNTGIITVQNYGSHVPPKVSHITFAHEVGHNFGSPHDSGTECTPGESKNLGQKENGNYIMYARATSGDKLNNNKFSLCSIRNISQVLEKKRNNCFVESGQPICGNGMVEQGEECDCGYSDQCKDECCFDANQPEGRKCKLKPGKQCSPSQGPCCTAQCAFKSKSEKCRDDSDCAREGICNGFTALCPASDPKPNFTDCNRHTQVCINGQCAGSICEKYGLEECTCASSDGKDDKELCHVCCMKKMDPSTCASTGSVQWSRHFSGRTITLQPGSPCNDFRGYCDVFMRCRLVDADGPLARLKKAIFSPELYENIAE

[9] = biological target: Human TACE protease containing the catalytic/disintegrin domains (human) (UniProt P78536); assay: cell-based or functional assay
Human TACE protease containing the catalytic/disintegrin domains (human), sequence (P78536 215-671 limits assumed): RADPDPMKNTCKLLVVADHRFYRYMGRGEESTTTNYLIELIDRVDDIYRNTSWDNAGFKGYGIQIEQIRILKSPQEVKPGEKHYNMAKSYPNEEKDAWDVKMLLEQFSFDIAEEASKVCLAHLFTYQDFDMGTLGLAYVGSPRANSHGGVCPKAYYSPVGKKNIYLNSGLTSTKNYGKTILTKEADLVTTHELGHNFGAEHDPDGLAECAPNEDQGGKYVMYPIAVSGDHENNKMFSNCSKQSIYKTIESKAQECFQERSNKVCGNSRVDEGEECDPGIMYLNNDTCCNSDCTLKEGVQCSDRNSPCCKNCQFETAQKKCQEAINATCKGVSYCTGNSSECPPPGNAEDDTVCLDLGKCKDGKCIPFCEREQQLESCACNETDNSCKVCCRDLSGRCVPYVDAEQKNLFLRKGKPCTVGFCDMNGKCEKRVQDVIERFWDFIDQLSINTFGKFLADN

[10] = biological target: TACE catalytic domain (human) (human) (UniProt P78536); assay: cell-based or functional assay
TACE catalytic domain (human) (human), sequence (P78536 215-477 limits assumed): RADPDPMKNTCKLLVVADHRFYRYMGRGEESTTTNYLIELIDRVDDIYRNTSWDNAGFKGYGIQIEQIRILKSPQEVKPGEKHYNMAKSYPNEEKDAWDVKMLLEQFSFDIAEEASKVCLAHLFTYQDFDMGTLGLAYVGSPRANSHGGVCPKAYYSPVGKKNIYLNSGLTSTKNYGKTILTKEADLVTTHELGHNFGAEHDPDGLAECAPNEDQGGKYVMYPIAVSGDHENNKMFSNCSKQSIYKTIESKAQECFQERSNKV

MMP 2, sequence (P08253 110-660): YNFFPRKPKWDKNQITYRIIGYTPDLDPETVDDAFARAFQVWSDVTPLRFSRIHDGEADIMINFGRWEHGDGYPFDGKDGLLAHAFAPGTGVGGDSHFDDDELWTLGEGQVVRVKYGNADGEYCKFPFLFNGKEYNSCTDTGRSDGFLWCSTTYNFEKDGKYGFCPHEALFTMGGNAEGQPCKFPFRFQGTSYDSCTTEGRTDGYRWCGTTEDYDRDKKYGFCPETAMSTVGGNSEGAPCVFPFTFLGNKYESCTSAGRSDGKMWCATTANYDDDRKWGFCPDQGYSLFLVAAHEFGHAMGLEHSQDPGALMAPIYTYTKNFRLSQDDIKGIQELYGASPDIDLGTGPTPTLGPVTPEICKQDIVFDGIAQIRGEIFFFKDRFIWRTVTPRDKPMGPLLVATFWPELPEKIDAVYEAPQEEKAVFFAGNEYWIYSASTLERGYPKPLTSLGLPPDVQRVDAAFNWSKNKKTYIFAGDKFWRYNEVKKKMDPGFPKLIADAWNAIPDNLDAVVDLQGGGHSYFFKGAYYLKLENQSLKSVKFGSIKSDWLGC
MMP 1, sequence (P03956 100-469): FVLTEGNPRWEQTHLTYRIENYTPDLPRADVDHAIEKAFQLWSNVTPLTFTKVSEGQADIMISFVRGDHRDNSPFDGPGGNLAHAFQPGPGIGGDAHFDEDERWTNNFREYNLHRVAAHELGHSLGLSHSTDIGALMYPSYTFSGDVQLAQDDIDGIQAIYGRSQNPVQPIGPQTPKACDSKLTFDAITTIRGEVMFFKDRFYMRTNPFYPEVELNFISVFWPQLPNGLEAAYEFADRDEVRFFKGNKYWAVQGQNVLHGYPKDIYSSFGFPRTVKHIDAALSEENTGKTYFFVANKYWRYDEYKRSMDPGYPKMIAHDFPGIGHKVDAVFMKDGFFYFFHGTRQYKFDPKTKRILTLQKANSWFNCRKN

B1: wt ProADAM 10 23-213 (C-terminal His tag) (protein)
chain: NPLNKYIRHYEGLSYNVDSLHQKHQRAKRAVSHEDQFLLLDFHAHGRQFNLRMKRDTSLFSDEFKVETSNKVPDYDTSHIYTGHIYGEEGSFSHGSVIDGRFEGFIKTRGGTFYIEPAERYIKDRILPFHSVIYHEDDINYPHKYGPQGGCADHSVFERMRKYQMTGVEEGARAHPEKHAASSGPELLRKKHHHHHH
For B1, the Ki [1] was greater than 2000 nM, the Ki [2] was greater than 2000 nM and the Ki [3] was greater than 2000 nM. For the same binder, the Ki [4] was greater than 2000 nM, the Ki [5] was greater than 2000 nM and the Ki [6] was greater than 2000 nM.

B2: Pro ADAM 8 (mouse) (protein, UniProt Q05910 18-186, looked up, not shown: small tags and cut ends)
chain: GPPLPHVKQYEVVWPRRLAASRSRRALPSHWGQYPESLSYALGTSGHVFTLHLRKNRDLLGSSYTETYSAANGSEVTEQLQEQDHCLYQGHVEGYEGSAASISTCAGLRGFFRVGSTVHLIEPLDADEEGQHAMYQAKHLQQKAGTCGVKDTNLNDLGPRALEIYRAQP
For B2, the prodomain inhibition of enzyme activity (percent) [7] was 9%, the prodomain inhibition of enzyme activity (percent) [8] was 25% and the prodomain inhibition of enzyme activity (percent) [9] was 13%. For the same binder, the prodomain inhibition of enzyme activity (percent) [10] was 50%.

B3: Pro ADAM 17 (mouse) (protein, UniProt Q9Z0F8 18-214, looked up, not shown: small tags and cut ends)
chain: PRPPEEAGSGSHPRLEKLDSLLSDYDILSLANIQQHSIRKRDLQSATHLETLLTFSALKRHFKLYLTSSTERFSQNLRVVVVDGKEESEYSVKWQNFFSGHVVGEPDSRVLAHIGDDDVTVRINTDGAEYNVEPLWRFVNDTKDKRMLVYKSEDIKDFSRLQSPKVCGYLNADSEELLPKGLIDREPSEEFVRRVKR
In the case of B3, the prodomain inhibition of enzyme activity (percent) [7] is reported as 17%, the prodomain inhibition of enzyme activity (percent) [8] is reported as 11% and the prodomain inhibition of enzyme activity (percent) [10] is reported as 37%.
